The DeepSol protein solubility set

Test: soluble on expression in E. coli; label from the status in PepcDB or PDB records

Row | Sequence | soluble on expression in E. coli
1 | MAHHHHHHMLECNTNSALMEAHFGVVHADQLVPRALSSHAAAAQLSGASKPDKTPTPSLPPGPFIVMGLYGRNVLVLIADGEGQTAVQIHVTRGVAEVAETFRKVAGTPLPPPALPLEPLSVPASPPESTMVAEAAAASRLVANDEVSQERPQAPETERREDQAGPVPATVTCIVAEETDAFMAPAADIAAAAAAEAQLCKDKAAGMRGVEGVCKEVGTATPVADEERHGGPPPTKEVILTDLHKAGETAAHACSSVVVEISQGVSISAASAPRTWRWSSTTSSSASSSSFDSHASQRLRQQQQQSRLEQIGEEQAHRSGPSTGRASAPSTPTDKVVEEVAEAWPTYGAQLLESAEEVTVVPAVTPATDDAPPLMTLPAAEHAMTSQNGEGVFQAEAAIGVVEAANTKTPGEKDVHYHDDGVVSADASLHGQSLLQLPEKDLSAPEGESEKHLQLGSSLAVQFFADHTPSLLPASSSMPRPSQQQHTGDAQEASLGTEVSFDEDGVDAHRLPATLESDCEERVQHVSGADADDVAGPVIAFQASSLLASVEQRGWANQAPPVRHVAIPAGEEVAVTTAMARSATAFTPSYSPPPASPADLRAAPRVWGAQGTSYPTSGPSPCAAAVGLQHHSAATPFTNFLKAYAVYVLGTHGAASGGESKQLRNGTAPHMNECAAGAGEASRGVAELASILDFYREQPLARIMEATAIQRRCRAAWNEVIASTPASAAAQVGSDVEVCKLKASASTTVFTELCVDELVSLLAIVHYPSPRQDG | not soluble
2 | MAHHHHHHMLKRSGTICSLQSVVRGAAKIAAAIVDASVGNVNVVDNSHNGEGGTPARAAGRSHTSSPPEVLPRSVVTQLHESKDDLRKNAVYMSVPSTRITRAAGFASLFVQLGWDHLVDRNGEGILSSQSHKRVVNTLRRMRGVVLKLGQMLSIQDPATVPQYVLQLFEQVRDSAYAMSREQLDQTLAKEYENINWRKDFFLEFDDEPIGAASIGQVHRATIKGEGDTQIEHVAVKVQYPGVATSIDSDIANLKMLISLHLLPPGMFVDRILQDLRQEFLLECRYKIEAAKQVRYAALIKQEPELQEVFVVPKVYESLSTENVLVTQFVTGIPVDRLANISGVQDLKNYVAERMLLLTLTELFRWRFMQTDPNYANFLFDAEKNKISLIDFGAAREYSKEFVKDYMDVVAAAARQDRDRIIEKSIKLGFLTGNEMKPMLDAHAASVELLGRPFRHHDKPFDFSAENLPSKIQEHVPTIIKLRLRPPPTPVYSLHRRISGIILLATKLKATVNSGEMFWNIYNSCRTNYE | not soluble
3 | MAHHHHHHMLQPFQLLQSLVSPIVGVSAKVTVGNQAKDDFLLKTLAIDKKKLDPSYFEKYDNLKWEGKIIAIGDIHGDMESLKLILRHANLINENDEWIAENVLLVQVGDVLDRGIYGPLIYNYLFKLQKEAPLKKSKVLLIMGNHEQLNMCGYFNYVNQKEVEIFFKNNFNYRLFHFVSTAGEYFKKLIRLPVIAKVNDILFVHAGISKQISSLSLQTIRLKTRLQIENMCKILSYDKSRDYVNREGVLWYDHVSRTAPYDEKQACAILSHVFNKYGAKHLVVGHTKQMTHEISTYCNGGLFLIDTGMSLFMNNGQPYPNYLVAENGIFKSVHLNVEVNKKSKYCDSLEIELRSPNKQSFCIHAKETLLSPPNGG | not soluble
4 | MAHHHHHHMLRGTPVRRASLRYRRPYWMMFLKGVDNWKIYTVIQQPDHQRTEMLYQAWLGGLDRPYTRPKCMANQPLWLSKKRHMLRKERLDGPETPLEKYVLEWHKKFHSFQGTERPTPDDLHTALDLVERPLDLSYALQLLGQCRNLNNIRFAKETFLVFLEACLRVGRRDCAEYALEHAEPLGFWFIDEDHRRYLQGEQTWYKLSPLDNLYYPVEENAKLNEGRKPITRLSPATESPGSGTAISDGEPSTDVEGETTVDDEIAQLEAELAALEREGGGK | not soluble
5 | MAHHHHHHMLRVSCRFFGALQEIFSRGQGVWNLDFGNSPTTEDLIFNSAPKTSTPPFHVLDLEGNIVNKINEPVVPKETLVKIMETMIRSNTIDNILLEAQRQGRISFYLTALGEEATVVGTAAGLEIRDEAFLQYREAGFLLYRGYNIPQLVAQCMGNVEDVLKGRQMPIHYGSRELNVHMVSSPLATQIPHAAGAGYAFRLENEELSDESKSRVAVVIFGEGAASEGDFHGGVNFAAATGSNTLFVVRNNGYAISTPARVQYKGDGVLARGIGYGIPSARVDGQDVLAILQAVQQARQIIRTTNQPVLIEALCYRLQHHSSSDDSGMYRSSDEIENFLALSPLDRFEKFLVKRDLWTAEHTGALAKQVREELLQELRRQELLPHWPADVMHDDVYKVKTPDLVKAQKELQAHYERNRGFYGK | not soluble
